From the supplement of paper PMC10065799, “High-throughput profiling of sequence recognition by tyrosine kinases and SH2 domains using bacterial peptide display” (eLife, 2023)

Columns and labels:
Grb2 SH2 = Grb2 SH2 (UniProt P62993); assay: SH2 binding enrichment of the phosphorylated peptide, bacterial display (enrichment ratio); higher = better substrate or ligand; peptides without Tyr show the background
c-Src SH2 = assay: as above
SHP2-C SH2 = assay: as above
EPHB2 = EPHB2 (UniProt P29323); assay: phosphorylation enrichment, bacterial display (enrichment ratio); higher = better substrate or ligand; peptides without Tyr show the background
Fes = Fes (UniProt P07332); assay: as above
EPHB1 = EPHB1 (UniProt P54762); assay: as above
Sequence of EPHB1 (P54762 whole entry, looked up): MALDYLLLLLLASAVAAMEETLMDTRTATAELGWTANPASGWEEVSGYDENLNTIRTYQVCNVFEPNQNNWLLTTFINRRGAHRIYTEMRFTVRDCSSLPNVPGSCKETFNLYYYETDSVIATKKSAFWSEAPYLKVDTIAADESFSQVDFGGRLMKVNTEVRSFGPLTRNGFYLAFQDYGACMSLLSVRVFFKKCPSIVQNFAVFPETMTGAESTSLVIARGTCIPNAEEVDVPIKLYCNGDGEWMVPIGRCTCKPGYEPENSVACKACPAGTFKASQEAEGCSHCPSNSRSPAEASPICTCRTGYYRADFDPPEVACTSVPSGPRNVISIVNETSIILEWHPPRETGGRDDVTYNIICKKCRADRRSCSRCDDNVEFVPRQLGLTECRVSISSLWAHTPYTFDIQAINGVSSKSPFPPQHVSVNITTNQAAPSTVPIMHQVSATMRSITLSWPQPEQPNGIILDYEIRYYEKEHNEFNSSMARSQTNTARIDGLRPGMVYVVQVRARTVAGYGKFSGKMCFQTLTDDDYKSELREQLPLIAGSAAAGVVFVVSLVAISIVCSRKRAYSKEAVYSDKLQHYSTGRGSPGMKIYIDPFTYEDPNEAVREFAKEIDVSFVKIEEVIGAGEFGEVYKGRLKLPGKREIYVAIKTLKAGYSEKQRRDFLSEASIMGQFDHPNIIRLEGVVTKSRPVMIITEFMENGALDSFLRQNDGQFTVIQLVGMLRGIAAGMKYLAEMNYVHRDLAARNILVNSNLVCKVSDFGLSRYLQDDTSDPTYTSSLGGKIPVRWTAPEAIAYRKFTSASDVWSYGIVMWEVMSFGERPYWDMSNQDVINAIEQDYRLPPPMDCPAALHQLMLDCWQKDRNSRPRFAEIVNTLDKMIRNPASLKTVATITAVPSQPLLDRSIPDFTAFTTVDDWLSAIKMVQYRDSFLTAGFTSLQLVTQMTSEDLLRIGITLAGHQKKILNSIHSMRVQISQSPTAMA

Fyn = Fyn (UniProt P06241); assay: as above
Sequence of Fyn (P06241 whole entry, looked up): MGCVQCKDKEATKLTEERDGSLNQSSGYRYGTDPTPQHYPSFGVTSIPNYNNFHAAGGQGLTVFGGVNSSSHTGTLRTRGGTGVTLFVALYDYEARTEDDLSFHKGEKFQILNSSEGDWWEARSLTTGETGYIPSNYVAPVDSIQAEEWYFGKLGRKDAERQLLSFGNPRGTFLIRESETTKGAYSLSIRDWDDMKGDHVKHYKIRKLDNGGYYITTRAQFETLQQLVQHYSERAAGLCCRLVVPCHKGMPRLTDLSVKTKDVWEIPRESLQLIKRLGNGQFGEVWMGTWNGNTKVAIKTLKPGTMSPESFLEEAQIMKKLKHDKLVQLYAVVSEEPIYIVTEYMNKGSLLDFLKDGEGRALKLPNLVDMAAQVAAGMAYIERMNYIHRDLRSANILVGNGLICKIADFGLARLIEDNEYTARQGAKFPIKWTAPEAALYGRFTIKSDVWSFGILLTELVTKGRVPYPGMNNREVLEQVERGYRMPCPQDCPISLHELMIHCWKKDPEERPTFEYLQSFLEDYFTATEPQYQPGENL

FGFR3 = FGFR3 (UniProt P22607); assay: as above
Sequence of FGFR3 (P22607 whole entry, looked up): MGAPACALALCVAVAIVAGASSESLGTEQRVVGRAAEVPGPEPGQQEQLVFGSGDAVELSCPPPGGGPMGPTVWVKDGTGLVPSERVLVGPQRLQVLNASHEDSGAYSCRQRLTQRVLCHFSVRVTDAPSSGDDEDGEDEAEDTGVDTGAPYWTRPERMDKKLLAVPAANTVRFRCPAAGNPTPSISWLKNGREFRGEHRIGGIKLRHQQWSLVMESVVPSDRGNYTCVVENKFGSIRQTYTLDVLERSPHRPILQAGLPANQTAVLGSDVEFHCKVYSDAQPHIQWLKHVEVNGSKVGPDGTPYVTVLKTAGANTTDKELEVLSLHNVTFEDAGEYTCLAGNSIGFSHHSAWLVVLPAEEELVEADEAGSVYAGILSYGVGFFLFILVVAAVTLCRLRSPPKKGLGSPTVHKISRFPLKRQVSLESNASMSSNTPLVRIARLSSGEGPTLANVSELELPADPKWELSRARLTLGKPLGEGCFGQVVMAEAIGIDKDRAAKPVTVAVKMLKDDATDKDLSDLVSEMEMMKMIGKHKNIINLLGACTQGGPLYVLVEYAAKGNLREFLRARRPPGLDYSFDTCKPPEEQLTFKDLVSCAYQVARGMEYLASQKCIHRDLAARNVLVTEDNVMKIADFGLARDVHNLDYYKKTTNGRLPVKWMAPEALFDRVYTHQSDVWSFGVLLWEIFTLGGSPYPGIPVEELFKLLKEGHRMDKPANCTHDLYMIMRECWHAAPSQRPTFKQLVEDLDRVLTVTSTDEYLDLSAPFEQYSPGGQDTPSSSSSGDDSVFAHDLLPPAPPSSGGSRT

Jak2 = Jak2 (UniProt O60674); assay: as above
Sequence of Jak2 (O60674 whole entry, looked up): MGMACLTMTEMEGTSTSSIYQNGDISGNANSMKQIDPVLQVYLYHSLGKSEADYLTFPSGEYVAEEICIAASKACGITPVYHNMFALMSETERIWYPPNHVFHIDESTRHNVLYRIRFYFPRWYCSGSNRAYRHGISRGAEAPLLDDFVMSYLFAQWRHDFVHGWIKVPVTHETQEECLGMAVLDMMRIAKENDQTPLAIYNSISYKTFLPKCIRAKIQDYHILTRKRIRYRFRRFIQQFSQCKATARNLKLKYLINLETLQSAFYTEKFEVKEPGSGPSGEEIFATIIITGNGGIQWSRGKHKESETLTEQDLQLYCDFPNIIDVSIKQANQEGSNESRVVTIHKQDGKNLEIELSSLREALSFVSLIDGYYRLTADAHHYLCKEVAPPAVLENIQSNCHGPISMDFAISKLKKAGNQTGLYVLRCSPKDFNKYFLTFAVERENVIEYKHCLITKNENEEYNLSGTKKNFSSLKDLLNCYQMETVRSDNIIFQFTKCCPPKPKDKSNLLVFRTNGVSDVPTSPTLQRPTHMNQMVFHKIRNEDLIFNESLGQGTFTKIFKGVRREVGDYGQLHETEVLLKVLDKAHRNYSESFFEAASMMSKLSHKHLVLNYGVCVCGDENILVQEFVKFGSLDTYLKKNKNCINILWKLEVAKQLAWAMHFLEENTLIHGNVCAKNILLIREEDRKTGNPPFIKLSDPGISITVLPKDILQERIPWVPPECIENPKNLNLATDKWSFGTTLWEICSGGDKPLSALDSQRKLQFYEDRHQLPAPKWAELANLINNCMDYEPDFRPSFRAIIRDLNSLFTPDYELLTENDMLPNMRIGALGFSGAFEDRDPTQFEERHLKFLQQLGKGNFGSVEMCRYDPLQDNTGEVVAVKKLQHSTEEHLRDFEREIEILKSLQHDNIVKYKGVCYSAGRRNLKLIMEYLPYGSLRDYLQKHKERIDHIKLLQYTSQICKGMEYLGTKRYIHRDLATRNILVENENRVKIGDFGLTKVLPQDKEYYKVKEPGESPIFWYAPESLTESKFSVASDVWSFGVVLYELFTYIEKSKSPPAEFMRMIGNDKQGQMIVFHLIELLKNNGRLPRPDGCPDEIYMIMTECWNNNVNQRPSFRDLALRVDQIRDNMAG

MERTK = MERTK (UniProt Q12866); assay: as above
Sequence of MERTK (Q12866 whole entry, looked up): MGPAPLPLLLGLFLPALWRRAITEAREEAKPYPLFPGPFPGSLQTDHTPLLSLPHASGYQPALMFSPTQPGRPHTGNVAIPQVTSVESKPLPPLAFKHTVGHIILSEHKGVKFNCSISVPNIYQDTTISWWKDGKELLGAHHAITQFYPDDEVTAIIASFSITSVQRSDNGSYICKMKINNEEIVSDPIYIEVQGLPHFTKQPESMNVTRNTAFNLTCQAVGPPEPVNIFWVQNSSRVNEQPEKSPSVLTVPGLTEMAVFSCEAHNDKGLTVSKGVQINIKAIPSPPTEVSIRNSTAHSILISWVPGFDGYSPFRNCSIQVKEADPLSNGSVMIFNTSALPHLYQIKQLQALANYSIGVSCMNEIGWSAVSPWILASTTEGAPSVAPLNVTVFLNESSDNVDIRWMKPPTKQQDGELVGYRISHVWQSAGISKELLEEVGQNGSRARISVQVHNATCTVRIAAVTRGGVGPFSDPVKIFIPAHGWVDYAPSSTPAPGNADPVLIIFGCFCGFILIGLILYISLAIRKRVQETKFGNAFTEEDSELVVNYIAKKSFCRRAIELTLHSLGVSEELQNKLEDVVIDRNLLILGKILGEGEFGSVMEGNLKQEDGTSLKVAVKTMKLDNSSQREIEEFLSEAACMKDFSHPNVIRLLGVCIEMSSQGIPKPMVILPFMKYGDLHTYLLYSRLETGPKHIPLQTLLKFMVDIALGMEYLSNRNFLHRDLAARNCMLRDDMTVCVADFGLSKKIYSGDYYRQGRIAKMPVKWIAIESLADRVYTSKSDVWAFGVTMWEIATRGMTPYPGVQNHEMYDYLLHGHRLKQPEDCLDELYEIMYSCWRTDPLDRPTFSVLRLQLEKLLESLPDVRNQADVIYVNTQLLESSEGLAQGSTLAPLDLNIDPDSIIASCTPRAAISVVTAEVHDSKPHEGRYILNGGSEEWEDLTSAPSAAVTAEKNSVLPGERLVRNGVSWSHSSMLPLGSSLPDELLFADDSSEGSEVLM

FGFR1 = FGFR1 (UniProt P11362); assay: as above
Hck = Hck (UniProt P08631); assay: as above
Sequence of Hck (P08631 whole entry, looked up): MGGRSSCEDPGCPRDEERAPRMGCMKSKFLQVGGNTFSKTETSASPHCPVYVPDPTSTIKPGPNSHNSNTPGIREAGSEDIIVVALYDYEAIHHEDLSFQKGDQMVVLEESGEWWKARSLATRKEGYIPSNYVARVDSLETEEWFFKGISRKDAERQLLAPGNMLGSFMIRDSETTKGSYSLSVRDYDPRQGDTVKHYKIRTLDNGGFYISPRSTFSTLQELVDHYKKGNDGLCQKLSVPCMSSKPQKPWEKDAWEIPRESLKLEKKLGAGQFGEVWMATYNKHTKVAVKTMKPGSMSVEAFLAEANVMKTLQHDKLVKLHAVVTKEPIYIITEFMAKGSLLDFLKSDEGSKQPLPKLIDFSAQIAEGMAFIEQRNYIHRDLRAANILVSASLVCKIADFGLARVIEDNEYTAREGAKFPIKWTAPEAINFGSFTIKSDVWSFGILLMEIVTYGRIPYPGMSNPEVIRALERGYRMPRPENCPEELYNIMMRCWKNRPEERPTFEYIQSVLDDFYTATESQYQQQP

c-Abl (mouse) = assay: as above
c-Src = assay: as above
AncSZ = assay: as above
Fer (mouse) = assay: as above
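Wherever SH2 binding enrichment of the phosphorylated peptide, bacterial display is given: peptide library displayed on the E. coli surface as eCPX fusions, selected cells deep-sequenced, score is each peptide's frequency after selection divided by its frequency in the input.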
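Wherever phosphorylation enrichment, bacterial display is given: 11-residue human phosphosite peptides and single-mutation variants displayed on the E. coli surface, counted by deep sequencing, each peptide's frequency after selection divided by its frequency in the unselected input library; frequency after pTyr selection over input frequency; kinase dosed for 20-30% of maximal phosphorylation in three min.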

Row | Sequence | SH2 binding enrichment (Grb2 SH2) | SH2 binding enrichment (c-Src SH2) | SH2 binding enrichment (SHP2-C SH2) | phosphorylation enrichment (EPHB2) | phosphorylation enrichment (Fes) | phosphorylation enrichment (EPHB1) | phosphorylation enrichment (Fyn) | phosphorylation enrichment (FGFR3) | phosphorylation enrichment (Jak2) | phosphorylation enrichment (MERTK) | phosphorylation enrichment (FGFR1) | phosphorylation enrichment (Hck) | phosphorylation enrichment (c-Abl (mouse)) | phosphorylation enrichment (c-Src) | phosphorylation enrichment (AncSZ) | phosphorylation enrichment (Fer (mouse))
1 | YGMSSYITRED [FNDC3B_Y180_T179S] | 0.764 | 0.472 | 0.669 | 0.452 | 0.844 | 0.545 | 0.423 | 0.696 | 0.697 | 0.544 | 0.529 | 0.431 | 0.645 | 0.51 | 0.819 | 0.524
2 | YHLLPYTVRAM [PARS2_Y93] | 1.15 | 5.37 | 1.81 | 1.47 | 0.913 | 2.32 | 3.04 | 13.9 | 6.87 | 9.72 | 16.5 | 8.34 | 24.6 | 3.84 | 1.28 | 0.595
3 | YIILIYAMKKK [SLCO1B1_Y645] | 2.34 | 2.04 | 2.86 | 0.348 | 0.511 | 0.486 | 0.514 | 0.692 | 0.451 | 0.416 | 0.331 | 0.53 | 0.426 | 0.363 | 0.588 | 0.399
4 | YPLELYERVRM [PRKCG_Y312] | 1.02 | 1.11 | 0.83 | 1.18 | 1.25 | 2.02 | 0.518 | 0.622 | 1.25 | 0.432 | 0.481 | 1.65 | 0.632 | 0.699 | 1.19 | 3.71
5 | YSPCDYQPCLA [TNS1_Y798_Y796C] | 0.874 | 2.46 | 0.908 | 9.31 | 0.966 | 13.9 | 1.14 | 3.25 | 1.06 | 3.24 | 4.87 | 0.838 | 0.827 | 1.62 | 2.78 | 2.44

Continued, in another order:

Row | SH2 binding enrichment (Grb2 SH2) | SH2 binding enrichment (c-Src SH2) | SH2 binding enrichment (SHP2-C SH2) | Sequence | phosphorylation enrichment (EPHB2) | phosphorylation enrichment (Fes) | phosphorylation enrichment (EPHB1) | phosphorylation enrichment (Fyn) | phosphorylation enrichment (FGFR3) | phosphorylation enrichment (Jak2) | phosphorylation enrichment (MERTK) | phosphorylation enrichment (FGFR1) | phosphorylation enrichment (Hck) | phosphorylation enrichment (c-Abl (mouse)) | phosphorylation enrichment (c-Src) | phosphorylation enrichment (AncSZ) | phosphorylation enrichment (Fer (mouse))
6 | 11.4 | 5.08 | 1.73 | YQLPYYNMVPS [BMPR1A_Y458] | 2.52 | 0.802 | 2.58 | 3.36 | 10.5 | 10.4 | 8.84 | 13.1 | 3.28 | 3.96 | 5.1 | 2.75 | 5.67
7 | 1.87 | 1.29 | 1.64 | YRNKPYISWPS [CDC42BPB_Y1638_S1633Y] | 0.461 | 0.635 | 0.45 | 0.41 | 0.46 | 0.697 | 0.449 | 0.394 | 0.606 | 0.401 | 0.522 | 0.547 | 0.394
8 | 0.941 | 0.753 | 1.03 | YRTPGYREVVI [TNS2_Y673_A670T] | 0.453 | 0.721 | 0.358 | 0.425 | 0.447 | 0.587 | 0.472 | 0.42 | 0.341 | 1.23 | 0.465 | 0.799 | 0.399
9 | 0.831 | 6.04 | 10.5 | YSGIYYKPESL [L2HGDH_Y103_H98Y] | 12.4 | 0.968 | 9.38 | 9.17 | 9.82 | 6.33 | 10.9 | 11 | 8.46 | 29.5 | 6.07 | 2.36 | 9.95
10 | 0.826 | 1.12 | 0.957 | YSNKLYYQLEQ [PDPR_Y109] | 2.11 | 1.09 | 3.14 | 2.08 | 7.22 | 1.76 | 6.24 | 8.28 | 2.27 | 0.82 | 3.28 | 1.43 | 0.81
11 | 0.877 | 0.686 | 0.66 | YYLGKYLQEVL [KLB_Y910] | 0.593 | 1.34 | 0.506 | 0.568 | 2.92 | 1.3 | 1.42 | 3.66 | 0.565 | 0.902 | 0.523 | 1.2 | 0.523
